{"source": "paper doi:10.1101/2025.04.24.648904", "about": "(bioRxiv, 2025)", "biological_target": "Hsp90 (Hsp82), full length (S. cerevisiae, UniProt P02829 1-709)", "sequence (P02829 whole entry)": "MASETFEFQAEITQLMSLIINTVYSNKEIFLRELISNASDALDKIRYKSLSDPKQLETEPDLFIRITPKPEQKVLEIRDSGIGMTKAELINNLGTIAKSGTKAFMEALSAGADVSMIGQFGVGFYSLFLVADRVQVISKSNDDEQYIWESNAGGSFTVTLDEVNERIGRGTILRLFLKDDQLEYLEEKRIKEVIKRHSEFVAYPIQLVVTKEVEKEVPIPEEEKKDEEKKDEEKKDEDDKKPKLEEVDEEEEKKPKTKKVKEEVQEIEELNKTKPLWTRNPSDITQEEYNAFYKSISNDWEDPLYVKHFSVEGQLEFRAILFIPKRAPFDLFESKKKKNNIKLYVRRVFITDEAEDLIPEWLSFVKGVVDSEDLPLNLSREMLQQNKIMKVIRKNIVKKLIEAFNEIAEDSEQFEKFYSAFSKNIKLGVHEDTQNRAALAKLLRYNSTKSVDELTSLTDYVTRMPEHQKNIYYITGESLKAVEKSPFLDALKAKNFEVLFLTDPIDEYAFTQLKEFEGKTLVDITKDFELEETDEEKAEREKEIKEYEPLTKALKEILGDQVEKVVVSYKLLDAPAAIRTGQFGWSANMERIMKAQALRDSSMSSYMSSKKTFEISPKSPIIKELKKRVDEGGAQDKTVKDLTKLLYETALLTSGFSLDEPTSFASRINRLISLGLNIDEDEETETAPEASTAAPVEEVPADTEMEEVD", "experiment": "AUC"}
{"binder": "Sgt1 (Suppressor of the G2 Allele of Skp1), full length (natural protein, S. cerevisiae, UniProt Q08446 1-395, looked up, Atto488 (maleimide) label where it is the labeled species in aUC) MPVEKDLKTAYKALYDEKEPLKALHLYDEILKGSPTNLTALIFKAACLEKLYFGFSDWHSDATMENAKELLDKALMTAEGRGDRSKIGLVNFRYFVHFFNIKDYELAQSYFKKAKNLGYVDDTLPLWEDRLETKLNKKNKKQKDSTNKHTIKPVESIENRGDNNSSHSPISPLKIETAPQESPKFKIDWYQSSTSVTISLFTVNLPESKEQVNIYISPNDRRTLSISYQVPKSGSEFQYNAKLSHEVDPKAVSLKIFPKKLEITLSKIDSTQWKKLEEDILTESSRLSDEGKNSDSATRLLSAETASKERLSYPSSSKKKIDWSKLDIDEEADEEAGSADSFFQKLYAGADPDTKRAMMKSFIESNGTALSTDWEDVSKGTVKTSPPEGMEPKHW", "values": [{"measurement": "Kd", "result": 510, "unit": "nM"}]}
